This note sets out measurements from PMC10714721.

By stoichiometry N is commonly meant the number of molecules, sites or subunits per partner or assembly.

This test addresses histidine-tagged VfmH (Dickeya dadantii). The test can be described thus: not stated; oligomerization pattern of VfmH with or without c-di-GMP or ATP (Fig. S5); method not given.

Several values for one entry are separate records, joined by “and”; a condition that tells them apart may be missing. Equal entries are not always repeated.

In the case of histidine-tagged VfmH (natural protein), the stoichiometry N was 6 and 2 and 3.
